# From US20240254182A1 (PROVINCIAL HEALTH SERVICES AUTHORITY, published 2024)
# T1: WT G-CSFR(Ig-CRH), purified, tag cleaved (human, UniProt Q99062 26-331)
# T1 construct: also called G-CSFRWT; wild type G-CSFR(Ig-CRH)
# T1 chain: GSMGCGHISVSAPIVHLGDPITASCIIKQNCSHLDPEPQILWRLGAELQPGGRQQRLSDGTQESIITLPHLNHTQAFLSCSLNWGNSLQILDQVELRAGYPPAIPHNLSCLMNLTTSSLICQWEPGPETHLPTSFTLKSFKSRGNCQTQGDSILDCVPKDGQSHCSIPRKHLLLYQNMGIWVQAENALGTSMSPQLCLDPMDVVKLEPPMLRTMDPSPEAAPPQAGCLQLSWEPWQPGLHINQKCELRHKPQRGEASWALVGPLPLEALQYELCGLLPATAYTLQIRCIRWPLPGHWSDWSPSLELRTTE
# T2: WT G-CSF, purified from insect cells, tag cleaved (human, UniProt P09919 31-206)
# T2 construct: protein of the SPR; also called G-CSFWT; wild type G-CSF
# T2 sequence: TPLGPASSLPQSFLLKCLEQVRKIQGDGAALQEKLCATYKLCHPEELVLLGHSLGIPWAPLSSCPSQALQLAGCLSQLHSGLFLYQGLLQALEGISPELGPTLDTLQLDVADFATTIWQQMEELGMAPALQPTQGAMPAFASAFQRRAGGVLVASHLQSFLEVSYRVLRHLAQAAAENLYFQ
# B1: design 134 G-CSFR(Ig-CRH)E, tag cleaved (receptor)
# chain: SMGCGHISVSAPIVHLGDPITASCIIKQNCSHLDPEPQILWELGAELQPGGRQQRLSDGTQESIITLPHLNHTQAFLSCSLNWGNSLQILDQVELRAGYPPAIPHNLSCLMNLTTSSLICQWEPGPETHLPTSFTLKSFKSEGNCQTQGDSILDCVPKDGQSHCSIPDKHLLLYQNMGIWVQAENALGTSMSPQLCLDPMDVVKLEPPMLRTMDPSPEAAPPQAGCLQLSWEPWQPGLHINQKCELRHKPQRGEASWALVGPLPLEALQYELCGLLPATAYTLQIRCIRWPLPGHWSDWSPSLELRTTE
# notes: also called design 137 G-CSFR(Ig-CRH)E
# Biological target: T1, WT G-CSFR(Ig-CRH), purified, tag cleaved
# Experiment: SPR, WT G-CSFR(Ig-CRH) amine-coupled, G-CSFE injected, single-cycle kinetics
# Protocol: (§1) The SPR binding assays were carried out on a Biacore T200 instrument (GE Healthcare, Mississauga, ON, Canada) with PBS-T (PBS+0.05% (v/v) Tween 20) running buffer at a temperature of 25° C. CM5 Series S sensor chip, Biacore amine coupling kit (NHS, EDC and 1 M ethanolamine), and 10 mM sodium acetate buffers were all purchased from GE Healthcare. PBS running buffer with 0.05% Tween20 (PBS-T) was purchased from Teknova Inc. (Hollister, CA). Designs were assessed in three different immobilization orientations.
# To assess binding affinity of G-CSFE to G-CSFRWT, recombinant G-CSFRWT purified as described in Example 5 was captured as described above in this Example. Using single-cycle kinetics, six concentrations of a two-fold dilution series of each G-CSFE mutant starting at […] with a blank buffer control were sequentially injected as described above. The same sample titration was also performed on a reference cell with no variants captured. The G-CSFRWT surface was regenerated as described above.
row,Binder,KD fold change (against WT:WT) [fold]
1,"design 9 G-CSFE, tag cleaved (ligand, also called design 9 G-CSFE mutant) TPLGPASSLPQSFLLKCLEQVRKIQGDGAALQEKLCATYKLCHPEELVLLGHSLGIPWAPLSSCPSQALQLAGCLSQLHSGLFLYQGLLQALEGISPELGPTLRTLQKDVARFATTIWRQMKELGMAPALQPTQGAMPAFASAFQRRAGGVLVASHLQSFLEVSYRVLRHLAQAAAENLYFQ",79
2,"design 134 G-CSFE, tag cleaved (ligand) TPLGPASSLPQSFLLKCLEQVRKIQGDGAALQEKLCATYKLCHPERLVLLGHSLGIPWAPLSSCPSQALQLAGCLSQLHSGLFLYQGLLQALEGISPELGPTLDTLQKDVARFATTIWQQMRRLGMAPALQPTQGAMPAFASAFQRRAGGVLVASHLQSFLEVSYRVLRHLAQAAAENLYFQ",465
3,"design 117 G-CSFE, tag cleaved (ligand, also called design 117 G-CSFE mutant) TPLGPASSLPQSFLLKCLEQVRKIQGDGAALQEKLCATYKLCHPERLVLLGHSLGIPWAPLSSCPSQALQLAGCLSQLHSGLFLYQGLLQALEGISPELGPTLDTLQLDVADFATTIWQQMRRLGMAPALQPTQGAMPAFASAFQRRAGGVLVASHLQSFLEVSYRVLRHLAQAAAENLYFQ",3.4

# Biological target: T2, WT G-CSF, purified from insect cells, …
# Experiment: SPR (Biacore T200), single-cycle kinetics
row,Binder,binding result
1,"design 304 G-CSFR(Ig-CRH)E, tag cleaved (receptor) SMGCGHISVSAPIVHLGDPITASCIIKQNCSHLDPEPQILWELGAELQPGGRQQRLSDGTQESIITLPHLNHTQAFLSCSLNWGNSLQILDQVKLRAGYPPAIPHNLSCLMNLTTSSLICQWEPGPETHLPTSFTLKSFKSRGNCQTQGDSILDCVPKDGQSHCSIPDKHLLLYQNMGIWVQAENALGTSMSPQLCLDPMDVVKLEPPMLRTMDPSPEAAPPQAGCLQLSWEPWQPGLHINQKCELRHKPQRGEASWALVGPLPLEALQYELCGLLPATAYTLQIRCIRWPLPGHWSDWSPSLELRTTE",no binding
2,B1,no binding
3,"design 300 G-CSFR(Ig-CRH)E, tag cleaved (receptor) SMGCGHISVSAPIVHLGDPITASCIIKQNCSHLDPEPQILWRLGAELQPGGRQQRLSDGTQESIITLPHLNHTQAKLSCSLNWGNSLQILDKVELRAGYPPAIPHNLSCLMNLTTSSLICQWEPGPETHLPTSFTLKSFKSRGNCQTQGDSILDCVPKDGQSHCSIPDKHLLLYQNMGIWVQAENALGTSMSPQLCLDPMDVVKLEPPMLRTMDPSPEAAPPQAGCLQLSWEPWQPGLHINQKCELRHKPQRGEASWALVGPLPLEALQYELCGLLPATAYTLQIRCIRWPLPGHWSDWSPSLELRTTE",no binding
4,"design 303 G-CSFR(Ig-CRH)E, tag cleaved (receptor) SMGCGHISVSAPIVHLGDPITASCIIKQNCSHLDPEPQILWRLGAELQPGGRQQRLSDGTQESIITLPHLNHTQAFLSCSLNWGNSLQILDQVKLRAGYPPAIPHNLSCLMNLTTSSLICQWEPGPETHLPTSFTLKSFKSRGNCQTQGDSILDCVPKDGQSHCSIPDKHLLLYQNMGIWVQAENALGTSMSPQLCLDPMDVVKLEPPMLRTMDPSPEAAPPQAGCLQLSWEPWQPGLHINQKCELRHKPQRGEASWALVGPLPLEALQYELCGLLPATAYTLQIRCIRWPLPGHWSDWSPSLELRTTE",no binding
5,"design 307 G-CSFR(Ig-CRH)E, tag cleaved (receptor) SMGCGHISVSAPIVHLGDPITASCIIKQNCSHLDPEPQILWELGAELQPGGRQQRLSDGTQESIITLPHLNHTQAFLSCSLNWGNSLQILDQVELRAGYPPAIPHNLSCLMNLTTSSLICQWEPGPETHLPTSFTLKSFKSRGNCQTQGDSILDCVPKDGQSHCSIPRKHLLLYQNMGIWVQAENALGTSMSPQLCLKPMKVVKLEPPMLRTMDPSPEAAPPQAGCLQLSWEPWQPGLHINQKCELRHKPQRGEASWALVGPLPLEALQYELCGLLPATAYTLQIRCIEWPLPGHWSDWSPSLELRTTE",no binding

# Biological target: B1
# Experiment: SPR, G-CSFRE amine-coupled, G-CSFE injected, single-cycle kinetics
# Protocol: as §1
# To determine binding affinity of G-CSFE to G-CSFRE the G-CSFRE mutant was captured by standard amine coupling as described by the manufacturer (GE LifeSciences). Briefly, immediately after EDC/NHS activation, a 5 μg/mL solution of G-CSFRE in 10 mM NaOAc, pH 5.0, was injected at a flow rate of 5 μL/min until a receptor density of ˜700-900 RU was reached. The remaining active groups were quenched by a 420 s injection of 1 M ethanolamine hydrochloride-NaOH pH 8.5 at 10 μL/min. Using single-cycle kinetics, six concentrations of a two-fold dilution series of the corresponding G-CSFE mutant starting at 200 nM with a blank buffer control were sequentially injected at 25 μL/min for 300 s with a 1800 s dissociation phase, resulting in a set of sensorgrams with a buffer blank reference. The same sample titration was also performed on a reference cell with no variants captured. The chip was regenerated to prepare for the next injection cycle by one pulse of 10 mM glycine/HCl, pH 2.0, for 30 s at 30 μL/min.
# Double-referenced sensorgrams from duplicate or triplicate repeat injections were analyzed using Biacore™ T200 Evaluation Software v3.0 and fit to the 1:1 Langmuir binding model.
row,Binder,KD fold change (against WT:WT) [fold]
1,"design 134 G-CSFE, tag cleaved (ligand) TPLGPASSLPQSFLLKCLEQVRKIQGDGAALQEKLCATYKLCHPERLVLLGHSLGIPWAPLSSCPSQALQLAGCLSQLHSGLFLYQGLLQALEGISPELGPTLDTLQKDVARFATTIWQQMRRLGMAPALQPTQGAMPAFASAFQRRAGGVLVASHLQSFLEVSYRVLRHLAQAAAENLYFQ",1

# Biological target: T2, WT G-CSF, purified from insect cells, …
# Experiment: SPR, single-cycle kinetics
row,Binder,binding result
1,"design 130 G-CSFR(Ig-CRH)E, tag cleaved (receptor, also called 130 ECD (Ig-CRH)) SMGCGHISVSAPIVHLGDPITASCIIKQNCSHLDPEPQILWELGAELQPGGRQQRLSDGTQESIITLPHLNHTQAFLSCSLNWGNSLQILDQVELRAGYPPAIPHNLSCLMNLTTSSLICQWEPGPETHLPTSFTLKSFKSRGNCQTQGDSILDCVPKDGQSHCSIPDKHLLLYQNMGIWVQAENALGTSMSPQLCLDPMDVVKLEPPMLRTMDPSPEAAPPQAGCLQLSWEPWQPGLHINQKCELRHKPQRGEASWALVGPLPLEALQYELCGLLPATAYTLQIRCIRWPLPGHWSDWSPSLELRTTE",no binding
2,"design 402 G-CSFR(Ig-CRH)E, tag cleaved (receptor) SMGCGHISVSAPIVHLGDPITASCIIKQNCSHLDPEPQILWELGAELQPGGRQQRLSDGTQESIITLPHLNHTQAFLSCSLNWGNSLQILDQVELRAGYPPAIPHNLSCLMNLTTSSLICQWEPGPETHLPTSFTLKSFKSRGNCQTQGDSILDCVPKDGQSHCSIPEKHLLLYENMGIWVQAENALGTSMSPQLCLDPMDVVKLEPPMLRTMDPSPEAAPPQAGCLQLSWEPWQPGLHINQKCELRHKPQRGEASWALVGPLPLEALQYELCGLLPATAYTLQIRCIEWPLPGHWSDWSPSLELRTTE",no binding
3,"design 401 G-CSFR(Ig-CRH)E, tag cleaved (receptor) SMGCGHISVSAPIVHLGDPITASCIIKQNCSHLDPEPQILWELGAELQPGGRQQRLSDGTQESIITLPHLNHTQAFLSCSLNWGNSLQILDQVELRAGYPPAIPHNLSCLMNLTTSSLICQWEPGPETHLPTSFTLKSFKSRGNCQTQGDSILDCVPKDGQSHCSIPDKHLLLYQNMGIWVQAENALGTSMSPQLCLDPMDVVKLEPPMLRTMDPSPEAAPPQAGCLQLSWEPWQPGLHINQKCELRHKPQRGEASWALVGPLPLEALQYELCGLLPATAYTLQIRCIDWPLPGHWSDWSPSLELRTTE",no binding
